Results from patent US12365732 (23ANDME, dated 2025).
Residue numbers refer to the chain shown, from its start. In names and notes the source's numbering stands.

T1: cynomolgus monkey CD96 on cynomolgus monkey PBMCs (cynomolgus monkey, UniProt A0A2K5TWV6 22-569)
T1 construct: whole, on cells
T1 sequence: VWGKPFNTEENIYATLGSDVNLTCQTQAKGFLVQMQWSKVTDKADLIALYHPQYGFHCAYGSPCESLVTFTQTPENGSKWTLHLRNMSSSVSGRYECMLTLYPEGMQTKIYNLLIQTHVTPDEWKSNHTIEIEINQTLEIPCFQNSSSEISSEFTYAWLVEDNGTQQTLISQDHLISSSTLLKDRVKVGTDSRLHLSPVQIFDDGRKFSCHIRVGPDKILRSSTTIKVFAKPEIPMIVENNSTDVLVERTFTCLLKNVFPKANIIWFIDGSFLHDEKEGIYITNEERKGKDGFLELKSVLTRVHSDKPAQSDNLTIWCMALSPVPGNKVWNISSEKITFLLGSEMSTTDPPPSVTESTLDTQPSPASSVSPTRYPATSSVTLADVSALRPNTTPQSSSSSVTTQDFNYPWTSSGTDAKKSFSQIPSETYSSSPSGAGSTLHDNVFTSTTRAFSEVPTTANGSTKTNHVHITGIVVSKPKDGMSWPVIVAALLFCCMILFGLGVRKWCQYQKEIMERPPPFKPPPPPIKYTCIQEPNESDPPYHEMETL

T2: hu-CD96 isoform 2 on CHO cells (human, UniProt P40200 22-585)
T2 construct: also called CHO-CD96 (isoform 2); CD96-CHOs
T2 sequence: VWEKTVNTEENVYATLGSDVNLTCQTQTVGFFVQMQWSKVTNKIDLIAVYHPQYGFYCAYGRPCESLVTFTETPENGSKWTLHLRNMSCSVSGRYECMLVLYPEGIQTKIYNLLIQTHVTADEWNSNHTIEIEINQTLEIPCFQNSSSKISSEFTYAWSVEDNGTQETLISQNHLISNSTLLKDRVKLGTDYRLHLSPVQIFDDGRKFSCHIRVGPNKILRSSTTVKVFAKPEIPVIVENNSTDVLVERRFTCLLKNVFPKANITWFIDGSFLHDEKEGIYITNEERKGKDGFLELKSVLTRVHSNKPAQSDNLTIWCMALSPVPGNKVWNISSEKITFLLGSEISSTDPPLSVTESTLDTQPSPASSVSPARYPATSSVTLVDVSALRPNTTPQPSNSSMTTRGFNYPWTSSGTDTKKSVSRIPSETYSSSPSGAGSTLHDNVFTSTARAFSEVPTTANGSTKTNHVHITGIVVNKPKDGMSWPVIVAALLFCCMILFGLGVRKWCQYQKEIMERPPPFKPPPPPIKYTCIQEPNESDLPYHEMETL

B1: h10G1 IgG (humanized 10G1) (antibody, V domains shown)
VH: EIQLVQSGSELKKPGASVKVSCKASGYPFTTYGMSWVRQAPGQGLEWMGWINTDSGVPTYADDFKGRFVFSLDTSVSTAYLQISSLKAEDTAVYFCARNIYYGWGNFDYWGQGTLVTVSS
VL: EIVMTQSPDFQSVTPKEKVTITCRASQDIYRNLHWYQQKPDQTPKLLIKHASDSISGIPSRFSGSGSGTDFTLTINSLEAEDAAAYYCLQGYSMPYTFGGGTKVEIKG
notes: human IgG1 N297G
B2: mAb1.v7.NGS9 IgG (antibody, V domains shown)
VH: EVQLVQSGAEVKKPGASVKVSCKASGFTFTNNFMHWVRQAPGQGLEWIGMIHANSGITNINEKFKNRVTMTTDTSTSTAYMELRSLRSEDTAVYYCRSDGVYEGYFDYWGQGTLVTVSS
VL: DIQLTQSPSSLSASVGDRVTITCKASQNVGTAIVWYQQKPGKAPKVLIYSASTRYTGVPSRFSGSGSGTDFTLTISSLQPEDFATYYCQQYSSSPLTFGQGTKVEIKG
notes: human IgG1 N297G
B3: mAb1.v7.NGS10 IgG (antibody, V domains shown)
VH: B2 VH with M50F, V101I
VL: B2 VL
notes: human IgG1 N297G
B4: mAb1.v7.NGS11 IgG (antibody, V domains shown)
VH: B2 VH with M50F
VL: B2 VL
notes: human IgG1 N297G

Columns and labels:
[1] = molecular target: T1, cynomolgus monkey CD96 on cynomolgus …; test: FACS, Ab 80 nM
Description: (§1) The ability of the anti-CD96 antibodies to bind primary immune cells from human and cynomolgus monkey with lower level of receptor expression was measured. Human PBMCs (StemCell Technologies, catalog #70025) and cynomolgus monkey PBMCs (Primate Biologicals, catalog #CM-MC) were incubated with human TruStain FcX (Biolegend, catalog #422302) for 10 minutes at 4° C., followed by incubation with an anti-CD96 antibody for 20 minutes at 4° C. Cells were washed and the anti-CD96 antibody binding was detected by incubation with anti-mouse IgG-PE (Thermo Fisher, catalog #M30204) or anti-human IgG (Fab) 2-PE (Thermo Fisher, catalog #H10104) for 20 minutes at 4° C. Cells were washed, and immune subtypes were labeled with anti-CD3 (BD, catalog #557705), anti-CD4 (Biolegend, catalog #317424) and anti-CD8 (BD, catalog #557760) for 20 minutes at 4° C. Cell binding was analyzed by flow cytometry with a CytoFLEX (Beckman Coulter). Binding curves were calculated as a percentage of cells positive for bound antibody in the cell type of interest.

[2] = molecular target: T1, cynomolgus monkey CD96 on cynomolgus …; test: FACS, Ab 0.128 nM
Description: as §1

cy-CD96 Fc = molecular target: T3, cy-CD96 Fc (cynomolgus monkey, biotinylated in Table 16); test: SPR 37C, biotin-CD96-Fc captured, IgG analyte
T3 construct: also called biotinylated cy-CD96-Fc
Description: (§2) Briefly, a 1:4 dilution of Biotin CAPture Reagent (GE Healthcare) into HBS-EP buffer (0.01 M HEPES pH 7.4, 0.15 M NaCl, 3 mM EDTA, 0.005% Surfactant P20) was applied to the chip at 2 µL/min flow rate. For the kinetics measurements, 20 nM biotinylated hu-CD96-Fc and cy-CD96-Fc was captured at 10 µL/min to achieve ~50 response units in the second flow cell (FC2). FC1 was kept as a reference. Next, 4-fold serial dilutions of IgG in HBS-P buffer (0.01 M HEPES pH 7.4, 0.15 M NaCl, 0.005% surfactant P20) from low (3.125 nM) to high (200 nM) concentration were injected (flow rate: 10 µL/min) at 37° C. The sensorgram was recorded and subject to reference and buffer subtraction before evaluating by BIACORE® 8K Evaluation Software (version 1.1.1.7442). Association rates ($kon$) and dissociation rates ($koff$) were calculated using a simple one-to-one Langmuir binding model. The equilibrium dissociation constant (K_D) value was calculated as the ratio of $koff/kon$.

hu-CD96 Fc = molecular target: T4, hu-CD96 Fc (human, biotinylated in Table 16); test: SPR 37C, biotin-CD96-Fc captured, IgG analyte
T4 construct: also called biotinylated hu-CD96-Fc
Description: as §2

[3] = molecular target: T1, cynomolgus monkey CD96 on cynomolgus …; test: FACS, Ab 3.2 nM
Description: as §1

[4] = molecular target: T2, hu-CD96 isoform 2 on CHO cells; test: FACS, blocks 10 nM CD155-Fc-FLAG binding to CD96-CHO
Description: CHO cells stably expressing isoform 2 of hu-CD96 (Origene, catalog #RC221005) were incubated with anti-CD96 antibodies for 20 minutes at 4° C. The cells were washed, and then incubated with 10 nM human CD155-Fc-FLAG for 30 minutes at 4° C. Cells were washed, and then human CD155-Fc-FLAG binding was detected by incubation with anti-FLAG-APC (Columbia Biosciences, catalog #D3-1718-1MG) for 20 minutes at 4° C. Cell binding was analyzed by flow cytometry with a CytoFLEX (Beckman Coulter). CD155 binding is represented as median fluorescence intensity (MedFI).
As shown in Table 20 (below), the anti-CD96 antibodies, mAb1.v7.NGS8, mAb1.v7.NGS9, mAb1.v7.NGS10, mAb1.v7.NGS11, and h10G1 inhibited soluble hu-CD155 binding to CD96-expressing CHO cells dose-dependently and potently. The antibody NK92.39 (Fuchs et al., 2004; Biolegend catalog #338405) inhibited receptor binding similarly.

Binder	% positive [1] [%]	% positive [2] [%]	Kd (cy-CD96 Fc) [nM]	koff (cy-CD96 Fc) [s⁻¹]	kon (cy-CD96 Fc) [M⁻¹ s⁻¹]	Kd (hu-CD96 Fc) [nM]	koff (hu-CD96 Fc) [s⁻¹]	kon (hu-CD96 Fc) [M⁻¹ s⁻¹]	% positive [3] [%]	IC50 [4] [nM]
B1	68.3	38.2	1.13	0.00789	6.99e+06	0.64	0.000393	612000	58.1	0.06
B2	73.8	49.4	2.88	0.000734	255000	0.2	5.42e-05	266000	77.9	0.91
B3	75.2	64.6	0.49	0.000374	767000	0.01	1.84e-06	144000	76.7	0.57
B4	81.9	63.5	1.52	0.000513	338000	0.08	1.38e-05	173000	78.4	0.46
